Patent US20250376519A1 (JIANGSU HENGRUI PHARMACEUTICALS, published 2025)

T1: human DLL3 on cells (human, UniProt Q9NYJ7 27-618)
T1 construct: Endogenous on H1184 and SHP77; Cell line is named under assay; also called H1184; DLL3/H82
T1 sequence: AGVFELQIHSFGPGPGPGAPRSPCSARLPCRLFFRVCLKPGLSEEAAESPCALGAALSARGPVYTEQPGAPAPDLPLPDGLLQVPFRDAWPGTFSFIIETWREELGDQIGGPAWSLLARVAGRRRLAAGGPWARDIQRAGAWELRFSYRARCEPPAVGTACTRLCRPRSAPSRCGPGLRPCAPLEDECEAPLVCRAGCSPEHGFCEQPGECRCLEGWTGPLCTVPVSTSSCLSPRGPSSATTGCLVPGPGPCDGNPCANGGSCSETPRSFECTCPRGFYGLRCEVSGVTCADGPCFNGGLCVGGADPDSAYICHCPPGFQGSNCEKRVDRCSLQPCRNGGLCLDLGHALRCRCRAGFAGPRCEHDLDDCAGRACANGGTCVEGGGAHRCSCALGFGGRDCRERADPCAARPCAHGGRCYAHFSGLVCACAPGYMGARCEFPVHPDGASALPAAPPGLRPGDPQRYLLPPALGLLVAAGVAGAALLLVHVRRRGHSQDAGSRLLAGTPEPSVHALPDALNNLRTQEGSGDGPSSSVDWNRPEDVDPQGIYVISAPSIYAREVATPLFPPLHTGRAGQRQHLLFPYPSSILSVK

T2: human DLL3 (ACRO, DLL3-H52H4) (human, UniProt Q9NYJ7 27-492)
T2 construct: Bought
T2 sequence: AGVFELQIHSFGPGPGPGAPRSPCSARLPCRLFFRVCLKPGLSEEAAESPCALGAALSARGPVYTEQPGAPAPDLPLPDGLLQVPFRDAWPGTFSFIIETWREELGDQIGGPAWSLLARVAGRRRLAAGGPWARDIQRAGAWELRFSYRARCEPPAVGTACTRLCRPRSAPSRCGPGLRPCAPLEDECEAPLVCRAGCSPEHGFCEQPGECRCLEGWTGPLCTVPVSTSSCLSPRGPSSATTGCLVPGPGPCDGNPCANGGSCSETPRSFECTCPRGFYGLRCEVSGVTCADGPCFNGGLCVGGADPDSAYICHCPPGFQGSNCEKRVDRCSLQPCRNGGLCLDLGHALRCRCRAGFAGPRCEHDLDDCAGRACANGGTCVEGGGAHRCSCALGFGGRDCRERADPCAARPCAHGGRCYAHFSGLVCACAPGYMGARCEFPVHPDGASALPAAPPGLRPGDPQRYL


Experiments:
human DLL3 on cells [1] = biological target: T1, human DLL3 on cells; assay: flow cytometry, H1184 cells
Method: (§1) The plates were centrifuged at 300 g for 5 min, and the supernatant was removed. Different concentrations of test antibodies were added at 100 μL/well. The plates were incubated in the dark in a refrigerator at 4° C. for 1 h. After 3 centrifugal washes at 300 g, working concentrations of APC anti-human IgG Fc (BioLegend, 410712) or PE F(ab′)2-goat anti-human IgG (invitrogen, H10104) were added. The plates were incubated in the dark in a refrigerator at 4° C. for 40 min. After 3 centrifugal washes at 300 g, the geometric mean fluorescence intensity was measured on an Invitrogen flow cytometer, and the EC50 values for the binding of the antibodies to DLL3-expressing cells were calculated.

[2] = biological target: T2, human DLL3 (ACRO, DLL3-H52H4); assay: SPR Biacore 8K, Ab captured on Protein A
Source text: Test antibodies were affinity-captured with a Protein A biosensor chip (Cat. #29127556, Cytiva) for 18 seconds, and then the antigens human DLL3 (ACRO, DLL3-H52H4), cynomolgus monkey DLL3 (KACTUS, DLL-RM103), mouse DLL3 (KACTUS, DLL-MM103), human CD3D&3E (ACRO, CDD-H52W1), and monkey CD3D&3E (ACRO, CDD-C52W4) were allowed to flow through the surface of the chip for 180 seconds, followed by 600 seconds of dissociation. Reaction signals were detected in real time using a Biacore 8K (Cytiva) instrument to obtain association and dissociation curves. After the dissociation in each experimental cycle, the chip was washed and regenerated with a 10 mM glycine-hydrochloric acid solution (pH 1.5, Cat. #BR-1003-54, Cytiva). Data fitting was performed using a 1:1 Model.

human DLL3 on cells [3] = biological target: T1, human DLL3 on cells; assay: flow cytometry, DLL3/H82 cells; parameters: key to Emax: geometric mean fluorescence intensity (flow cytometry)
Method: as §1

| EC50 (human DLL3 on cells [1]) [nM] | Emax (human DLL3 on cells [1]) | Kd [2] [nM] | koff [2] [s⁻¹] | kon [2] [M⁻¹ s⁻¹] | EC50 (human DLL3 on cells [3]) [nM] | Emax (human DLL3 on cells [3]) | Binder |
| --- | --- | --- | --- | --- | --- | --- | --- |
| 0.06 | 2190 | 1.64 | 0.00116 | 704000 | – | – | hu6L2H2 (antibody, human IgG1, kappa, V domains shown) VH: EVQLVQSGAEVKKPGASVKVSCKASGYTFTDYYMNWVRQAPGQRLEWMGIINPYSGVTIYNHKFKGRVTLTVDKSANTAYMELSSLRSEDTAVYYCARQDSLLDYAMDYWGQGTTVTVSS VL: DIQMTQSPSSLSASVGDRVTITCHASQGISGNMGWLQQKPGKAPKGLIYHGANLEDGVPSRFSGSGSGADYTLTISSLQPEDFATYYCVQYAQFPYTFGGGTKVEIKR |
| 0.05 | 2420 | 0.877 | 0.000756 | 863000 | – | – | hu6L2H6 (antibody, human IgG1, kappa, V domains shown) VH: EVQLVQSGSELKKPGASVKVSCKASGYTFTDYYMNWVRQAPGQGLEWMGIINPYSGVTIYNHKFKGRFVLSVDKSSNTAYLQISSLKAEDTAVYYCARQDSLLDYAMDYWGQGTTVTVSS VL: DIQMTQSPSSLSASVGDRVTITCHASQGISGNMGWLQQKPGKAPKGLIYHGANLEDGVPSRFSGSGSGADYTLTISSLQPEDFATYYCVQYAQFPYTFGGGTKVEIKR |
| 0.1 | 2140 | 0.461 | 0.000913 | 1.98e+06 | – | – | hu6L2H12 (antibody, human IgG1, kappa, V domains shown) VH: EVQLVQSGSELKKPGASVKVSCKASGYTFTDYYMNWVRQAPGQGLEWMGIINPYSGVTIYNHKFKGRFALSVDKSSNTAYLQISSLKAEDTAVYYCARQDSLLDYAMDYWGQGTTVTVSS VL: DIQMTQSPSSLSASVGDRVTITCHASQGISGNMGWLQQKPGKAPKGLIYHGANLEDGVPSRFSGSGSGADYTLTISSLQPEDFATYYCVQYAQFPYTFGGGTKVEIKR |
| 0.06 | 2490 | 0.969 | 0.000784 | 810000 | – | – | hu6L2H5 (antibody, human IgG1, kappa, V domains shown) VH: EVQLVQSGSELKKPGASVKVSCKASGYTFTDYYMNWVRQAPGQGLEWMGIINPYSGVTIYNHKFKGRFVLSVDKSVSTAYLQISSLKAEDTAVYYCARQDSLLDYAMDYWGQGTTVTVSS VL: DIQMTQSPSSLSASVGDRVTITCHASQGISGNMGWLQQKPGKAPKGLIYHGANLEDGVPSRFSGSGSGADYTLTISSLQPEDFATYYCVQYAQFPYTFGGGTKVEIKR |
| 0.06 | 2310 | 1.45 | 0.00108 | 743000 | – | – | hu6L4H4 (antibody, human IgG1, kappa, V domains shown) VH: EVQLVQSGAEVKKPGASVKVSCKASGYTFTDYYMNWVRQAPGKRLEWMGIINPYSGVTIYNHKFKGRVTLTVDKSANTAYMELSSLRSEDTAVYYCARQDSLLDYAMDYWGQGTTVTVSS VL: DIQMTQSPSSLSASVGDRVTITCHASQGISGNMGWLQQKPGKAPKGLIYHGANLEDGVPSRFSGSGSGADYTLTISSLQPEDFADYYCVQYAQFPYTFGGGTKVEIKR |
| – | – | 1.09 | 0.000983 | 900000 | 0.83 | 5580 | hu30L2H7 (antibody, human IgG1, kappa) heavy: not shown light: DIVMTQSPDSLAVSLGERATINCKASENVGYVSWYQQKPGQPPKLLIYGASNRYTGVPDRFSGSGSATDFTLTISSLQAEDVAVYHCGQSYSYPLTFGQGTKLEIKRTVAAPSVFIFPPSDEQLKSGTASVVCLLNNFYPREAKVQWKVDNALQSGNSQESVTEQDSKDSTYSLSSTLTLSKADYEKHKVYACEVTHQGLSSPVTKSFNRGEC |
| – | – | 1.25 | 0.00131 | 1.05e+06 | 0.43 | 5300 | hu30L3H3 (antibody, human IgG1, kappa, V domains shown) VH: EVRLVQSGAEVKKPGASVKVSCKASGYTFTDYYMNWVRQAPGQSLEWMGIINPYQGDTSYNQKFRGRVTLTVDKSASTAYMELSSLRSEDTAVYYCARYHYGPHLEGYFDVWGQGTTVTVSS VL: DIVMTQSPKSLAVSLGERATINCKASENVGYVSWYQQKPGQSPKLLIYGASNRYTGVPDRFSGSGSATDFTLTISSLQAEDVAVYHCGQSYSYPLTFGQGTKLEIKR |
| – | – | 0.882 | 0.000956 | 1.08e+06 | 0.43 | 5340 | hu30L3H4 (antibody, human IgG1, kappa, V domains shown) VH: EVRLVQSGAEVKKPGASVKVSCKASGYTFTDYYMNWVRQAPGQSLEWMGIINPYSGDTSYNQKFRGRVTLTVDKSASTAYMELSSLRSEDTAVYYCARYHYGPHLEGYFDVWGQGTTVTVSS VL: DIVMTQSPKSLAVSLGERATINCKASENVGYVSWYQQKPGQSPKLLIYGASNRYTGVPDRFSGSGSATDFTLTISSLQAEDVAVYHCGQSYSYPLTFGQGTKLEIKR |
| – | – | 0.939 | 0.000894 | 952000 | 0.46 | 5340 | hu30L3H6 (antibody, human IgG1, kappa, V domains shown) VH: EVRLVQSGAEVKKPGASVKVSCKASGYTFTDYYMNWVRQAPGQSLEWMGIINPYNVDTSYNQKFRGRVTLTVDKSASTAYMELSSLRSEDTAVYYCARYHYGPHLEGYFDVWGQGTTVTVSS VL: DIVMTQSPKSLAVSLGERATINCKASENVGYVSWYQQKPGQSPKLLIYGASNRYTGVPDRFSGSGSATDFTLTISSLQAEDVAVYHCGQSYSYPLTFGQGTKLEIKR |
| – | – | 0.891 | 0.000762 | 855000 | 0.44 | 5390 | hu30L3H2 (antibody, human IgG1, kappa) heavy: not shown light: DIVMTQSPKSLAVSLGERATINCKASENVGYVSWYQQKPGQSPKLLIYGASNRYTGVPDRFSGSGSATDFTLTISSLQAEDVAVYHCGQSYSYPLTFGQGTKLEIKRTVAAPSVFIFPPSDEQLKSGTASVVCLLNNFYPREAKVQWKVDNALQSGNSQESVTEQDSKDSTYSLSSTLTLSKADYEKHKVYACEVTHQGLSSPVTKSFNRGEC |
| – | – | 0.362 | 0.00059 | 1.63e+06 | 0.51 | 5530 | hu30L3H1 (antibody, human IgG1, kappa, V domains shown) VH: EVQLVQSGAEVKKPGASVKVSCKASGYTFTDYYMNWVRQAPGQSLEWMGIINPYNGDTSYNQKFRGRVTITVDKSASTAYMELSSLRSEDTAVYYCARYHYGPHLEGYFDVWGQGTTVTVSS VL: DIVMTQSPKSLAVSLGERATINCKASENVGYVSWYQQKPGQSPKLLIYGASNRYTGVPDRFSGSGSATDFTLTISSLQAEDVAVYHCGQSYSYPLTFGQGTKLEIKR |
| – | – | 0.735 | 0.00082 | 1.12e+06 | 0.43 | 5250 | hu30L3H5 (antibody, human IgG1, kappa, V domains shown) VH: EVRLVQSGAEVKKPGASVKVSCKASGYTFTDYYMNWVRQAPGQSLEWMGIINPYTGDTSYNQKFRGRVTLTVDKSASTAYMELSSLRSEDTAVYYCARYHYGPHLEGYFDVWGQGTTVTVSS VL: DIVMTQSPKSLAVSLGERATINCKASENVGYVSWYQQKPGQSPKLLIYGASNRYTGVPDRFSGSGSATDFTLTISSLQAEDVAVYHCGQSYSYPLTFGQGTKLEIKR |
| – | – | 0.815 | 0.000853 | 1.05e+06 | 0.43 | 5450 | hu30L3H7 (antibody, human IgG1, kappa) heavy: not shown light: DIVMTQSPKSLAVSLGERATINCKASENVGYVSWYQQKPGQSPKLLIYGASNRYTGVPDRFSGSGSATDFTLTISSLQAEDVAVYHCGQSYSYPLTFGQGTKLEIKRTVAAPSVFIFPPSDEQLKSGTASVVCLLNNFYPREAKVQWKVDNALQSGNSQESVTEQDSKDSTYSLSSTLTLSKADYEKHKVYACEVTHQGLSSPVTKSFNRGEC |
